Drawing on patent US6987169, this text covers percent block of hIK1 currents for 1 substance.

This experiment has as its target hIK1 intermediate conductance, calcium-activated potassium channel (human) (UniProt O15554). The experiment can be described thus: cell-based or functional assay.

Sequence of hIK1 intermediate conductance, calcium-activated potassium channel (human) (O15554 other isoform, or with tags, fused parts or gaps): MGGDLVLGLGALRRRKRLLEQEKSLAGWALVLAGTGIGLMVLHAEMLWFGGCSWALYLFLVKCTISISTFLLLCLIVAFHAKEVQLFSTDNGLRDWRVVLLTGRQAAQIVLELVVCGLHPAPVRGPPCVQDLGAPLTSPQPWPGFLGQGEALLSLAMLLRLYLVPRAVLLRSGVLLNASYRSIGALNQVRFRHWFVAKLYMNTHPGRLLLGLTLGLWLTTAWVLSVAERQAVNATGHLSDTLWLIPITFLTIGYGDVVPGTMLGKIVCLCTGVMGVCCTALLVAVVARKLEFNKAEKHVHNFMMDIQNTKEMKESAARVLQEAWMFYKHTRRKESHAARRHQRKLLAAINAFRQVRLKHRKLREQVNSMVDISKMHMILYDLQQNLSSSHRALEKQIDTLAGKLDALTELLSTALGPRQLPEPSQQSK
Sequence of iberiotoxin (P24663 whole entry): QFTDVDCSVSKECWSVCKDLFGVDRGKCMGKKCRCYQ

For the substance “iberiotoxin (from UniProt P24663 1-37) (peptide)”, the percent block of hIK1 currents at 50 nM was determined as 15%.
